In patent US20180185450A1 (Sanofi, published 2018):
Numbered stars: 1 amine (or outer) side, 2 acyl side, 3 side chain; on linkers, the order of the positions; unused ones are H or OH. Square brackets hold non-standard residues; d marks the D form. Side chains are listed from the residue outwards. Ends that are not written are not given here. γGlu = O=C(O)[C@H](CCC(=O)[*:2])N[*:1]; X70 = not defined here; x53 = not defined here; x70 = not defined here; x76 = not defined here; Aib = CC(C)(N)C(=O)O

molecular target: human glucagon receptor (human, UniProt P47871 26-477); assay: cell-based or functional assay
Sequence (P47871 26-477): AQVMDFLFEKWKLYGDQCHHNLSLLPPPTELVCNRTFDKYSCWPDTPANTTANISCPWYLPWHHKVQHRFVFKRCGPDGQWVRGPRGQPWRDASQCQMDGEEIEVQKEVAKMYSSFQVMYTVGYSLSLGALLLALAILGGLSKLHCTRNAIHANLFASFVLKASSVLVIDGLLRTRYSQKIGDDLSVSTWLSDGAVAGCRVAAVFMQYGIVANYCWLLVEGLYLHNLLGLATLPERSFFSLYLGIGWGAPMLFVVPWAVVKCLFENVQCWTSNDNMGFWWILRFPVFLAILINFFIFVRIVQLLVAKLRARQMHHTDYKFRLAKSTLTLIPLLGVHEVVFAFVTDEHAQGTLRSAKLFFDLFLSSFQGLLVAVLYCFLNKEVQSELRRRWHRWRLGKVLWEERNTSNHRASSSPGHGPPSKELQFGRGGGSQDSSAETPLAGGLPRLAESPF

Binder	EC50 hGlucagon-R (cAMP)
H[Aib]QGTFTSDLSKQK([γGlu-x70])DEEAAKLFIEWLKAGGPSSGAPPPS-NH2 (reading uncertain) [SEQ ID NO: 213]	59.1 pM
H[Aib]QGTFTSDLSKQK([γGlu-x76])ESRAAQDFIEWLKAGGPSSGAPPPS-NH2 (reading uncertain) [SEQ ID NO: 202]	6.9 pM
H[Aib]QGTFTSDLSKQK([γGlu-x76])ESRAAQLFIEWLKAGGPSSGAPPPS-NH2 (reading uncertain) [SEQ ID NO: 203]	13.1 pM
HXQGTFTSDLSKQKEEEAAQDFIEWLKAGGPSSGAPPPS (dSer at 2; K(γE-x53) at 14; C-terminal NH2) [SEQ ID NO: 16]	117 pM
HXQGTFTSDLSKQKESEAAQDFIEWLKAGGPSSGAPPPS (dSer at 2; K(γE-x53) at 14; C-terminal NH2) [SEQ ID NO: 20]	104 pM
HXHGTFTSDLSKQKDEEAARLFIEWLKAGGPSSGAPPPS (dSer at 2; K(γE-X70) at 14; C-terminal NH2) [SEQ ID NO: 220]	2.3 pM
HXHGTFTSDLSKQKEEEAARLFIEWLKAGGPSSGAPPPS (dSer at 2; K(γE-X70) at 14; C-terminal NH2) [SEQ ID NO: 219]	3.7 pM
HXQGTFTSDLSKQKESEAAQLFIEWLKAGGPSSGAPPPS (dSer at 2; K(γE-x53) at 14; C-terminal NH2) [SEQ ID NO: 21]	144 pM
HXQGTFTSDLSKQKEEKKAKLFIEWLKAGGPSSGAPPPS (dSer at 2; K(γE-x53) at 14; C-terminal NH2) [SEQ ID NO: 23]	126 pM
HXQGTFTSDLSKQKDEEAARLFIEWLKAGGPSSGAPPPS (dSer at 2; K(γE-X70) at 14; C-terminal NH2) [SEQ ID NO: 222]	2.9 pM
HXQGTFTSDLSKQKEEEAAXDFIEWLKAGGPSSGAPPPS (dSer at 2; K(γE-x53) at 14; Aib at 20; C-terminal NH2) [SEQ ID NO: 18]	152 pM
HXQGTFTSDLSKQKEEEAAKLFIEWLKAGGPSSGAPPPS (dSer at 2; K(γE-x53) at 14; C-terminal NH2) [SEQ ID NO: 19]	104 pM
HXQGTFTSDLSKQKESRAAQLFIEWLKAXGPSSGAPPPS (Aib at 2; K(γE-x76) at 14; dAla at 29; C-terminal NH2) [SEQ ID NO: 204]	12.5 pM
HXQGTFTSDLSKQKDEEAARLFIEWLKAGGPSSGAPPPS (dSer at 2; K(γE-x53) at 14; C-terminal NH2) [SEQ ID NO: 221]	9.2 pM
H[Aib]QGTFTSDLSKQK([γGlu-x70])DSRRAQLFIEWLKAGGPSSGAPPPS-NH2 (reading uncertain) [SEQ ID NO: 198]	2.4 pM
H[Aib]QGTFTSDLSKQK([γGlu-γGlu-x53])DEEAARLFIEWLKAGGPSSGAPPPS-NH2 (reading uncertain) [SEQ ID NO: 226]	19.1 pM

Binder	EC50 hGlucagon-R (cAMP)
HSHGTFTSDLSKQK([γGlu-x53])ESRRAQDFIEWLKAGGPSSGAPPPS-NH2 (reading uncertain) [SEQ ID NO: 208]	1.3 pM
H[Aib]QGTFTSDLSKQK([γGlu-X70])DEEAARLFIEWLKAGGPSSGAPPPS-NH2 (reading uncertain) [SEQ ID NO: 214]	16 pM
H[Aib]HGTFTSDLSKQK([γGlu-γGlu-x53])DEEAARLFIEWLKAGGPSSGAPPPS-NH2 (reading uncertain) [SEQ ID NO: 227]	1.1 pM
HXQGTFTSDLSKQKESRRAQLFIEWLKAXGPSSGAPPPS (Aib at 2; K(γE-x70) at 14; dAla at 29; C-terminal NH2) [SEQ ID NO: 205]	5.2 pM
HXQGTFTSDLSKQKDKRAAQLFIEWLKAXGPSSGAPPPS (Aib at 2; K(γE-x76) at 14; dAla at 29; C-terminal NH2) [SEQ ID NO: 212]	6.6 pM
HXQGTFTSDLSKQKDKRAAQLFIEWLKAXGPSSGAPPPS (Aib at 2; K(γE-x70) at 14; dAla at 29; C-terminal NH2) [SEQ ID NO: 211]	26.4 pM
H[Aib]HGTFTSDLSKQK([γGlu-X70])EEEAARLFIEWLKAGGPSSGAPPPS-NH2 (reading uncertain) [SEQ ID NO: 217]	2.1 pM
H[Aib]QGTFTSDLSKQK([γGlu-x70])DEQKAKLFIEWLKSGGPSSGAPPPS-NH2 (reading uncertain) [SEQ ID NO: 206]	12.5 pM
HXQGTFTSDLSKQKDEQRAKDFIEWLKAXGPSSGAPPPS (Aib at 2; K(γE-x70) at 14; dAla at 29; C-terminal NH2) [SEQ ID NO: 199]	7.2 pM
HXQGTFTSDLSKQKDKRRAQLFIEWLKAXGPSSGAPPPS (Aib at 2; K(γE-x70) at 14; dAla at 29; C-terminal NH2) [SEQ ID NO: 210]	3 pM
HXQGTFTSDLSKQKDKRRAQDFIEWLKAXGPSSGAPPPS (Aib at 2; K(γE-x70) at 14; dAla at 29; C-terminal NH2) [SEQ ID NO: 209]	1.9 pM
HXQGTFTSDLSKQKEEEAAKDFIEWLKAGGPSSGAPPPS (dSer at 2; K(γE-x53) at 14; C-terminal NH2) [SEQ ID NO: 17]	93.1 pM
HXQGTFTSDLSKQKDEQRAKLFIEWLKAXGPSSGAPPPS (Aib at 2; K(γE-x70) at 14; dAla at 29; C-terminal NH2) [SEQ ID NO: 200]	4.4 pM
HXQGTFTSDLSKQKDEKAAQDFIEWLKAGGPSSGAPPPS (dSer at 2; K(γE-x53) at 14; C-terminal NH2) [SEQ ID NO: 22]	2.4 pM
HXQGTFTSDLSKQKDEQAAKLFIEWLKAXGPSSGAPPPS (Aib at 2; K(γE-x76) at 14; dAla at 29; C-terminal NH2) [SEQ ID NO: 201]	29.6 pM
H[Aib]QGTFTSDLSKQK([γGlu-γGlu-x53])DEQRAKEFIEWLKSGGPSSGAPPPS-NH2 (reading uncertain) [SEQ ID NO: 207]	1.2 pM

molecular target: human GLP-1 receptor (human, UniProt P43220 24-463); assay: cell-based or functional assay

Binder	EC50 hGLP-1R (cAMP)
H[Aib]QGTFTSDLSKQK([γGlu-x70])DEEAAKLFIEWLKAGGPSSGAPPPS-NH2 (reading uncertain) [SEQ ID NO: 213]	2.7 pM
H[Aib]QGTFTSDLSKQK([γGlu-x76])ESRAAQDFIEWLKAGGPSSGAPPPS-NH2 (reading uncertain) [SEQ ID NO: 202]	26.2 pM
H[Aib]QGTFTSDLSKQK([γGlu-x76])ESRAAQLFIEWLKAGGPSSGAPPPS-NH2 (reading uncertain) [SEQ ID NO: 203]	34.9 pM
HXQGTFTSDLSKQKEEEAAQDFIEWLKAGGPSSGAPPPS (dSer at 2; K(γE-x53) at 14; C-terminal NH2) [SEQ ID NO: 16]	2.8 pM
HXQGTFTSDLSKQKESEAAQDFIEWLKAGGPSSGAPPPS (dSer at 2; K(γE-x53) at 14; C-terminal NH2) [SEQ ID NO: 20]	3.8 pM
HXHGTFTSDLSKQKDEEAARLFIEWLKAGGPSSGAPPPS (dSer at 2; K(γE-X70) at 14; C-terminal NH2) [SEQ ID NO: 220]	2 pM
HXHGTFTSDLSKQKEEEAARLFIEWLKAGGPSSGAPPPS (dSer at 2; K(γE-X70) at 14; C-terminal NH2) [SEQ ID NO: 219]	2.1 pM
HXQGTFTSDLSKQKESEAAQLFIEWLKAGGPSSGAPPPS (dSer at 2; K(γE-x53) at 14; C-terminal NH2) [SEQ ID NO: 21]	3.8 pM
HXQGTFTSDLSKQKEEKKAKLFIEWLKAGGPSSGAPPPS (dSer at 2; K(γE-x53) at 14; C-terminal NH2) [SEQ ID NO: 23]	5.6 pM
HXQGTFTSDLSKQKDEEAARLFIEWLKAGGPSSGAPPPS (dSer at 2; K(γE-X70) at 14; C-terminal NH2) [SEQ ID NO: 222]	1.8 pM
HXQGTFTSDLSKQKEEEAAXDFIEWLKAGGPSSGAPPPS (dSer at 2; K(γE-x53) at 14; Aib at 20; C-terminal NH2) [SEQ ID NO: 18]	2.6 pM
HXQGTFTSDLSKQKEEEAAKLFIEWLKAGGPSSGAPPPS (dSer at 2; K(γE-x53) at 14; C-terminal NH2) [SEQ ID NO: 19]	1.9 pM
HXQGTFTSDLSKQKESRAAQLFIEWLKAXGPSSGAPPPS (Aib at 2; K(γE-x76) at 14; dAla at 29; C-terminal NH2) [SEQ ID NO: 204]	34.1 pM
HXQGTFTSDLSKQKDEEAARLFIEWLKAGGPSSGAPPPS (dSer at 2; K(γE-x53) at 14; C-terminal NH2) [SEQ ID NO: 221]	1.5 pM
H[Aib]QGTFTSDLSKQK([γGlu-x70])DSRRAQLFIEWLKAGGPSSGAPPPS-NH2 (reading uncertain) [SEQ ID NO: 198]	8.2 pM
H[Aib]QGTFTSDLSKQK([γGlu-γGlu-x53])DEEAARLFIEWLKAGGPSSGAPPPS-NH2 (reading uncertain) [SEQ ID NO: 226]	1.4 pM

Binder	EC50 hGLP-1R (cAMP)
HSHGTFTSDLSKQK([γGlu-x53])ESRRAQDFIEWLKAGGPSSGAPPPS-NH2 (reading uncertain) [SEQ ID NO: 208]	2 pM
H[Aib]QGTFTSDLSKQK([γGlu-X70])DEEAARLFIEWLKAGGPSSGAPPPS-NH2 (reading uncertain) [SEQ ID NO: 214]	4.2 pM
H[Aib]HGTFTSDLSKQK([γGlu-γGlu-x53])DEEAARLFIEWLKAGGPSSGAPPPS-NH2 (reading uncertain) [SEQ ID NO: 227]	1.4 pM
HXQGTFTSDLSKQKESRRAQLFIEWLKAXGPSSGAPPPS (Aib at 2; K(γE-x70) at 14; dAla at 29; C-terminal NH2) [SEQ ID NO: 205]	12.3 pM
HXQGTFTSDLSKQKDKRAAQLFIEWLKAXGPSSGAPPPS (Aib at 2; K(γE-x76) at 14; dAla at 29; C-terminal NH2) [SEQ ID NO: 212]	14.1 pM
HXQGTFTSDLSKQKDKRAAQLFIEWLKAXGPSSGAPPPS (Aib at 2; K(γE-x70) at 14; dAla at 29; C-terminal NH2) [SEQ ID NO: 211]	15.5 pM
H[Aib]HGTFTSDLSKQK([γGlu-X70])EEEAARLFIEWLKAGGPSSGAPPPS-NH2 (reading uncertain) [SEQ ID NO: 217]	4.3 pM
H[Aib]QGTFTSDLSKQK([γGlu-x70])DEQKAKLFIEWLKSGGPSSGAPPPS-NH2 (reading uncertain) [SEQ ID NO: 206]	3.2 pM
HXQGTFTSDLSKQKDEQRAKDFIEWLKAXGPSSGAPPPS (Aib at 2; K(γE-x70) at 14; dAla at 29; C-terminal NH2) [SEQ ID NO: 199]	10.1 pM
HXQGTFTSDLSKQKDKRRAQLFIEWLKAXGPSSGAPPPS (Aib at 2; K(γE-x70) at 14; dAla at 29; C-terminal NH2) [SEQ ID NO: 210]	6.7 pM
HXQGTFTSDLSKQKDKRRAQDFIEWLKAXGPSSGAPPPS (Aib at 2; K(γE-x70) at 14; dAla at 29; C-terminal NH2) [SEQ ID NO: 209]	5.4 pM
HXQGTFTSDLSKQKEEEAAKDFIEWLKAGGPSSGAPPPS (dSer at 2; K(γE-x53) at 14; C-terminal NH2) [SEQ ID NO: 17]	1.7 pM
HXQGTFTSDLSKQKDEQRAKLFIEWLKAXGPSSGAPPPS (Aib at 2; K(γE-x70) at 14; dAla at 29; C-terminal NH2) [SEQ ID NO: 200]	4.6 pM
HXQGTFTSDLSKQKDEKAAQDFIEWLKAGGPSSGAPPPS (dSer at 2; K(γE-x53) at 14; C-terminal NH2) [SEQ ID NO: 22]	1.1 pM
HXQGTFTSDLSKQKDEQAAKLFIEWLKAXGPSSGAPPPS (Aib at 2; K(γE-x76) at 14; dAla at 29; C-terminal NH2) [SEQ ID NO: 201]	22.7 pM
H[Aib]QGTFTSDLSKQK([γGlu-γGlu-x53])DEQRAKEFIEWLKSGGPSSGAPPPS-NH2 (reading uncertain) [SEQ ID NO: 207]	1.1 pM
